Drawing on US5620849, this text covers binding signal for one sequence.

The data set addresses E1/E2 complex (Bovine papillomavirus type 1) (UniProt P03116+P03122). The data set is described as follows: footprint. Particulars: E1 plus 100 ng E2: equivalent protection of E1 site at 10-fold lower E1 than without E2.
UniProt P03116, sequence (P03116 whole entry, chain 1 of 2): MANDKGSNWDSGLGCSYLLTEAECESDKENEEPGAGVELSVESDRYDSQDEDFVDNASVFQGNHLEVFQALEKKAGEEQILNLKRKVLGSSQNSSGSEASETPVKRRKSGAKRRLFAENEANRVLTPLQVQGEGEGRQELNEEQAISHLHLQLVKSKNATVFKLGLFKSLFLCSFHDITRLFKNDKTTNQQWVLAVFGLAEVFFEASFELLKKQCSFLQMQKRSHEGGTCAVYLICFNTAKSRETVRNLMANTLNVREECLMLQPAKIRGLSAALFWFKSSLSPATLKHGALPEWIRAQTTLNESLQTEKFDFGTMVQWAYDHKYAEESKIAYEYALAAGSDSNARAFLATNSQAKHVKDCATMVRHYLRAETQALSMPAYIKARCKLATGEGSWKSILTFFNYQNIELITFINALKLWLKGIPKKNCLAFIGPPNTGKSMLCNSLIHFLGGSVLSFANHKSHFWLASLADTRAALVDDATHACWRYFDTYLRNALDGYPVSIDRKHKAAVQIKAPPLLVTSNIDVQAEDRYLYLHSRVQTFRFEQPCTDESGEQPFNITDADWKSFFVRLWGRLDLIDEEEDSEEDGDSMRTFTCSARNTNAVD
UniProt P03116, sequence (P03122 whole entry, chain 2 of 2): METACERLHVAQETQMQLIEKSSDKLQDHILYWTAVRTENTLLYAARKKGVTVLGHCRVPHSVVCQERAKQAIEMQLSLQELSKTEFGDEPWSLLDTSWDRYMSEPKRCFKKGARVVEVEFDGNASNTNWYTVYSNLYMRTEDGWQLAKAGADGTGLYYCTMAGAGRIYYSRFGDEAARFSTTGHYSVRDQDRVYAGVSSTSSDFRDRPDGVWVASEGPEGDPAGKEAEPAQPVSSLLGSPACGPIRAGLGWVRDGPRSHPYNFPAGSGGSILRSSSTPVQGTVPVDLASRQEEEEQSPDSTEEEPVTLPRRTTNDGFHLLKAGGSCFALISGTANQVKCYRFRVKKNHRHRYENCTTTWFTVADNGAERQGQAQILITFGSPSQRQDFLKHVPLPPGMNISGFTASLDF

“ACCGAAACCGGTAAGTAAAGACTATGTATTTTTTCCCAGTGAATANBBRBBRBBNNCNNBNNBCACACCATCACCGTT (double strand) [pKSO BPV origin fragment (7805-100)]”: the binding signal amounted to 10 fold.
